Earlier results, collected in patent publication US20020188108.

Target: T1, IF3-His6 (translation initiation factor 3) (Escherichia coli) (UniProt P0A707)
T1 sequence: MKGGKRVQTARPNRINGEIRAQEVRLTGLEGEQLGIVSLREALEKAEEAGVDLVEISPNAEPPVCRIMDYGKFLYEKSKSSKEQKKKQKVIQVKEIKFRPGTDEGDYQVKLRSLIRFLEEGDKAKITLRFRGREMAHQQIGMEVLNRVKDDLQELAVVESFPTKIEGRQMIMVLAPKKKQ
Settings: CITED Tapprich et al. 1989

In the case of 16S rRNA G791A in 30S subunit, the binding signal (fold reduction) is listed as 10.
